For one test, the system named is Capitella WaNaC^212912. Description: Two-electrode voltage clamp of Xenopus oocytes expressing Capitella WaNaC 212912. In kind it is cell-based, Capitella teleta. The method, then: (§1) Defolliculated stage V/VI oocytes from X. laevis were commercially acquired (Ecocyte Bioscience) and stored at 18 °C in 50% (in water) Leibovitz’s L-15 medium (Gibco) supplemented with additional 0.25 mg/ml gentamicin, 1 mM L-glutamine, and 15 mM Hepes, pH 7.6. Oocytes were injected with 2 ng cRNA (WT or mutant Aplysia FaNaC) and 2 to 60 ng cRNA (WT C. gigas XM_011442205.2, O. bimaculoides XM_014930938.1, L. gigantea XM_009055314.1_160261, P. fucata pfu_aug2.0_4392.1_09318.t1, C. teleta Capca1_207658, Capca1_52833, Capca1_185559, and Capca1_212912, M. lignano Mlig049925.g2, Mlig051885.g1, and Mlig041003.g1, P. australis g6004.t1 and g5063.t1 and R. norvegicus NP_077068.1 (rat ASIC1a) and respective mutants). Two-electrode voltage clamp experiments were performed 1 to 3 days after injection. The oocyte was placed in an RC-3Z bath (Warner Instruments) and bath solution (NaCl: 96 mM, KCl: 2 mM, CaCl2: 1.8 mM, MgCl2: 1 mM, Hepes: 5 mM; pH: 7.5) was perfused continuously and rapidly switched to bath solution containing peptide ligands via the VCS-8-pinch valve control perfusion system (Warner Instruments). […] Peptides were applied at varying concentrations between 30 nM and 100 μM for concentration-response experiments. […] Current recordings were analyzed in Clampfit 11.1 (Molecular Devices). […]

The next test concerns Octopus FaNaC. As to the kind of experiment: Peptide-gated currents at oocytes expressing Octopus FaNaC. Conditions: peptides at 100 μM. It is filed as cell-based, Octopus bimaculoides. An excerpt:
(§2) Figure 1 Phylogenetic and experimental characterization of the FaNaC family.A, FaNaC branch from DEG/ENaC phylogeny (full phylogeny in Fig. S1). ∗Genes tested here. ∞Genes tested elsewhere. Genes in bold encode peptide-gated channels. aLRT support for key branches is shown. Blue background, broader FaNaC family; green background, annelid-specific branch of FaNaCs with diverse ligand sensitivity; pink background, Wamide-activated channels (WaNaCs). B, example peptide-gated currents at Xenopus oocytes expressing indicated genes. All peptide applications 100 μM, except for some at Capitella FaNaC: FMRFa, FLRPa, FLRFa, and FMKFa (3 μM); LFRYa (30 μM). The scale bars represent x, 10 s; y, 5 μA. C, mean (± SEM) normalized current response to different peptides (concentrations as in (B)) at oocytes expressing indicated channels. Lighter symbols are individual data points, n = 4 to 7. FaNaC, FMRFa-gated sodium channel; FMRFa, Phe-Met-Arg-Phe-amide.

The subject of a further test is Crassostrea FaNaC. As to the kind of experiment: Peptide-gated currents at oocytes expressing Crassostrea FaNaC. It is filed as cell-based, Crassostrea gigas. Particulars: peptides at 100 μM.
Source text: as §2

In test [1] the target is T1, rat ASIC1a (Rattus norvegicus, UniProt P55926, K246A).
T1 construct: R. norvegicus NP_077068.1 (rat ASIC1a) and respective mutants; expressed in transfected cells; host or cells: Xenopus laevis oocytes (cRNA injection)
T1 sequence (P55926 1-526 K246A): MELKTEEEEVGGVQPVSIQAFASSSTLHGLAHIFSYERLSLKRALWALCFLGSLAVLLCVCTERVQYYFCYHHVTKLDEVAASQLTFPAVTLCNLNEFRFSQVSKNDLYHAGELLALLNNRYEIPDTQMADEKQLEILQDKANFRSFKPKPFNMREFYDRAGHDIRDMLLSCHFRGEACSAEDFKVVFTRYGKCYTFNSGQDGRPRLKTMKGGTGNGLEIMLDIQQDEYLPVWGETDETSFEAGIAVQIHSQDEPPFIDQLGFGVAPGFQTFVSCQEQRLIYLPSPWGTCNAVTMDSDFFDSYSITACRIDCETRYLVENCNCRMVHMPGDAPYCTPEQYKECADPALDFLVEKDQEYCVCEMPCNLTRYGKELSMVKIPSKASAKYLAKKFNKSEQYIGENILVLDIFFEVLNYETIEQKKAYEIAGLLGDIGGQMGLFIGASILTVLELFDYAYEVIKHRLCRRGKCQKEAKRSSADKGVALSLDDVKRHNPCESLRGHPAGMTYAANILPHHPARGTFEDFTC
As to the kind of experiment: FRRFa enhancement of pH-gated currents at oocytes expressing WT or mutant rat ASIC1a. It is filed as cell-based. Conditions: K246A mutant; 50 μM FRRFa; n = 6. The protocol:
(§3) Figure 6 Determinants of FRRFa modulation of rat ASIC1a.A, pH 5.3 (filled black bars)-gated currents after preincubation in desensitizing pH (unfilled bars) alone or in 50 μM FRRFa (blue bars) at oocytes expressing WT or mutant rat ASIC1a (rASIC1a). The scale bars represent x, 10 s; y, 200 nA. Desensitizing pH described in Figure S4. B, mean (± SEM, n = 4–7) enhancement (currentb/currenta from (A)) of desensitized current amplitude by 50 μM FRRFa at indicated rat ASIC1a mutants. ASIC, acid-sensing ion channel.
(§4) Figure S4. Measurement of steady state desensitization and peptide modulation of rat ASIC1a mutants. (A) Left, example currents at an oocyte expressing a rat ASIC1a mutant in response to decreasing pH. Right, mean (± SEM, n = 3-4) normalized currents in response to decreasing pH. (B) Left, example currents at an oocyte expressing a rat ASIC1a mutant in response to pH 5.3 after pre-incubation in decreasing pH. Right, mean (± SEM, n = 3-4) normalized currents in response to decreasing pre-incubation pH. This established that pH 6.9 was strongly desensitizing for WT and most mutants, and pH 6.7 was strongly desensitizing for mutants K246A and V377A. (C) Example experiment showing: current response to activating pH (5.3) after pre-incubation in resting pH 7.8; current response ("a") to activating pH after 20 s pre-incubation in desensitizing pH (6.7 for this mutant); and current response ("b") to activating pH after 20 s pre-incubation in desensitizing pH plus 50 μM FRRFa. Dividing current amplitude "b" by that of "a" gives fold-enhancement by FRRFa in Fig. 6B. All scale bars: x, 10 s; y, 10 μA.

The target in test [2] is T2, rat ASIC1a (Rattus norvegicus, UniProt P55926).
T2 construct: R. norvegicus NP_077068.1 (rat ASIC1a) and respective mutants; expressed in transfected cells; host or cells: Xenopus laevis oocytes (cRNA injection)
T2 sequence (P55926 1-526): T1 sequence (P55926 1-526 K246A) with A246K
Described as above. It is filed as cell-based. Particulars: WT; 50 μM FRRFa; pH 5.3 after preincubation in desensitizing pH; n = 7. The method, then:
as §3, §4

In test [3] the target is T3, rat ASIC1a (Rattus norvegicus, UniProt P55926, S274A).
T3 construct: R. norvegicus NP_077068.1 (rat ASIC1a) and respective mutants; expressed in transfected cells; host or cells: Xenopus laevis oocytes (cRNA injection)
T3 sequence (P55926 1-526 S274A): T1 sequence (P55926 1-526 K246A) with A246K, S274A
The description is as above. It is filed as cell-based. Conditions: S274A mutant; 50 μM FRRFa; n = 6. The method, then: as §3, §4

Test [4] concerns Malacoceros WaNaC^ON156824. Description: Two-electrode voltage clamp of Xenopus oocytes expressing Malacoceros WaNaC ON156824. In kind it is cell-based, Malacoceros fuliginosus. Conditions: WT channel, n = 9, mean ± SEM, read-out: KWGGNSRMWa EC50. (Two-electrode voltage clamp holds a large cell at a set potential and records current.)
A further test has as its system Capitella FaNaC^52833. Description: Two-electrode voltage clamp of Xenopus oocytes expressing Capitella FaNaC 52833. Particulars: WT; LFRYa 30 μM. In kind it is cell-based, Capitella teleta. The method, then: as §1
Test [5] has as its target Capitella teleta FaNaC^52833 (Capitella teleta).
Test [6] concerns the target Malacoceros fuliginosus FaNaC^ON156825 (Malacoceros fuliginosus).
The target of test [7] is Malacoceros fuliginosus FaNaC^ON156826 (Malacoceros fuliginosus).
In test [8] the target is Aplysia kurodai FaNaC S184A (Aplysia kurodai).
For test [9], the target named is Aplysia kurodai FaNaC (FMRFa-gated sodium channel) (Aplysia kurodai).
Test [10] concerns the target T4, rat ASIC1a (acid-sensing ion channel 1a) (rat) (UniProt P55926).
T4 sequence: T1 sequence (P55926 1-526 K246A) with A246K

Another test has as its target T5, rat ASIC1a S274A (rat) (UniProt P55926).
T5 sequence: T1 sequence (P55926 1-526 K246A) with A246K, S274A

The target of test [11] is Malacoceros fuliginosus WaNaC^ON156824 (Malacoceros fuliginosus).
Test [12] addresses Capitella teleta WaNaC^212912 (Wamide-gated sodium channel) (Capitella teleta).

Residue numbers refer to the chain shown, from its start. Where no end group is shown, it is not given here.

As a reminder, the EC50 is the concentration needed to bring the measured effect to its halfway point. Take AWVGDKSLSW-NH2 [AWVGDKSLSWa]: the AWVGDKSLSWa-gated currents entry with Capitella WaNaC^212912 (R255Q, R291N and R472Q mutations) was “abolished”. Also, in the test with Capitella WaNaC^212912 (WT channel, Xenopus oocytes, n = 8, mean ± SEM, read-out: AWVGDKSLSWa EC50), the EC50 was found to be 2000 ± 200 nM.
With “FLRFa: peptide encoded by the Octopus FMRFa propeptide (FLRF-NH2)”, the “current amplitude relative to FMRFa” value in the test with Octopus FaNaC is on record as “larger currents than FMRFa”; in the test with Crassostrea FaNaC, “slightly larger currents than FMRFa”.
As to “FMKFa: peptide encoded by the Octopus FMRFa propeptide (FMKF-NH2)”, the “current amplitude relative to FMRFa” value in the test with Octopus FaNaC is “larger currents than FMRFa”.
On to “FRRFa: synthetic FMRFa analog that enhances ASICs (FRRF-NH2)”, for which the figures for the “enhancement of pH-gated currents” value in the test with rat ASIC1a [1], in the test with rat ASIC1a [2] and in the test with rat ASIC1a [3] were “not ostensibly enhanced at all”, 10 ± 3 fold and 2 ± 0.3 fold, respectively.
On to KWGGNSRMW-NH2 [KWGGNSRMWa], for which the EC50 in test [4] turned out to be 340 ± 100 nM.
For “LFRYa: product of the RYamide propeptide from Capitella (LFRY-NH2)”, the “current response to peptide” value with Capitella FaNaC^52833 was “small currents”.

B1: FMRFamide (Phe-Met-Arg-Phe-amide) (peptide)
peptide: FMRF-NH2
B1: the EC50 of peptide-gated current, two-electrode voltage clamp on Xenopus oocytes in test [5] stood at 350 nM; in test [6] it was 230 nM; in test [7], 11000 nM. Also, the EC50 of FMRFa-gated current, full concentration-response, two-electrode voltage clamp on Xenopus oocytes in [8] came out at 30000 nM. This molecule came in with an EC50 of FMRFa-gated current, two-electrode voltage clamp on Xenopus oocytes in test [9] of 3400 nM. The I (3 μM)/I (30 μM) ratio of FMRFa potency (3 μM FMRFa-gated current amplitude/30 μM FMRFa-gated current amplitude) in [9] was 0.64.

B2: FRRFa (peptide)
peptide: FRRF-NH2
As for B2, the fold enhancement of desensitized pH 5.3-gated current by 50 μM FRRFa, two-electrode voltage clamp on Xenopus oocytes was 10 fold in test [10] and 2 fold with rat ASIC1a S274A (rat).

B3: …a (peptide)
peptide: KWGGNSRMW-NH2
Molecule B3 returned an EC50 of peptide-gated current, two-electrode voltage clamp on Xenopus oocytes in test [11] of 340 nM.

B4: …a (peptide)
peptide: AWVGDKSLSW-NH2
With B4, the EC50 of peptide-gated current, two-electrode voltage clamp on Xenopus oocytes in test [12] stood at 2000 nM.

The values are drawn from PMC9234716, “Comparative analysis defines a broader FMRFamide-gated sodium channel family and determinants of neuropeptide sensitivity” (The Journal of Biological Chemistry, 2022).
